Two molecules from PMC11925332, “Structural Insights and Reaction Profile of a New Unspecific Peroxygenase from Marasmius wettsteinii Produced in a Tandem-Yeast Expression System” (ACS Chemical Biology, 2024) can be followed below.

The target of series [1] is Recombinant unspecific peroxygenase MweUPO-1 from Marasmius wettsteinii (Marasmius wettsteinii). Put plainly: crystal structure; deglycosylated (Endo H) MweUPO-1, 11 mg/mL in 50 mM sodium citrate pH 5.6; sitting-drop vapor diffusion at 18 °C, 10-20% (v/v) PEG 4000, 0.2 M (NH4)2SO4; space group P43212, two molecules per asymmetric unit.
Substrate in series [2]: COc1cccc(OC)c1O
Put plainly: purified protein. As to conditions: 2 mM H2O2; 100 mM potassium phosphate pH 5.0 per table footnote (methods section says phosphate pH 6.0). Type of series: biochemical, Marasmius wettsteinii.

Substrate in series [3]: CCn1c(=NN=c2sc3cc(S(=O)(=O)O)ccc3n2CC)sc2cc(S(=O)(=O)O)ccc21
Put plainly: purified protein. Particulars: 2 mM H2O2, 100 mM Britton-Robinson buffer pH 4.0 per table footnote (methods section says phosphate/citrate pH 4.0).

Substrate in series [4]: COc1ccc(CO)cc1OC
Put plainly: purified protein. Particulars: 2 mM H2O2; 100 mM potassium phosphate pH 5.0 per table footnote (methods section says phosphate pH 7.0).

“Recombinant unspecific peroxygenase MweUPO-1 from Marasmius wettsteinii (enzyme)”: in series [1], the stoichiometry N – broadly, the number of molecules, sites or subunits per partner or assembly – was determined as 2.

B1: MweUPO-1 (Marasmius wettsteinii) (protein)
chain: SAHPWKAPGPNDSRGPCPGLNTLANHGFLPRNGRNISVPMIVKAGFEGYNVQSDILILAGKVGMLTSREADTISLEDLKLHGTIEHDASLSREDVAIGDNLHFNEAIFTTLANSNPGADVYNISSAAQVQHDRLADSVARNPNVTNTDLTATIRSSESAFYLTVMSAGDPLRGEAPKKFVNVFFQEERMPIKEGWKRSTTPINLPLLGPIIDRITELSDWKPTGDNCGAIVLGPGL
Take B1: in series [2], the Michaelis-Menten constant (Km) (commonly the concentration of substrate that gives half-maximal velocity) worked out at 220 ± 1 µM; the kcat – broadly, the maximal rate divided by the concentration of active sites – turned out to be 61.6 ± 0.85 s⁻¹; the kcat/Km (usually the second-order rate constant that governs catalysis at low substrate concentration) came out at 285000 M⁻¹ s⁻¹. Moreover, in series [3], the Km was 30 ± 3 µM, the kcat was 15.5 ± 0.68 s⁻¹ and the kcat/Km worked out at 534000 M⁻¹ s⁻¹. In addition, in series [4], the Km was found to be 260 ± 80 µM, the kcat is 22.5 ± 0.73 s⁻¹ and the kcat/Km was found to be 87600 M⁻¹ s⁻¹.
